{
  "source": "patent US20060210536A1",
  "about": "(published 2006)",
  "biological_target": "STAT3 (Homo sapiens (Human), UniProt P40763 1-770)",
  "sequence (P40763 whole entry)": "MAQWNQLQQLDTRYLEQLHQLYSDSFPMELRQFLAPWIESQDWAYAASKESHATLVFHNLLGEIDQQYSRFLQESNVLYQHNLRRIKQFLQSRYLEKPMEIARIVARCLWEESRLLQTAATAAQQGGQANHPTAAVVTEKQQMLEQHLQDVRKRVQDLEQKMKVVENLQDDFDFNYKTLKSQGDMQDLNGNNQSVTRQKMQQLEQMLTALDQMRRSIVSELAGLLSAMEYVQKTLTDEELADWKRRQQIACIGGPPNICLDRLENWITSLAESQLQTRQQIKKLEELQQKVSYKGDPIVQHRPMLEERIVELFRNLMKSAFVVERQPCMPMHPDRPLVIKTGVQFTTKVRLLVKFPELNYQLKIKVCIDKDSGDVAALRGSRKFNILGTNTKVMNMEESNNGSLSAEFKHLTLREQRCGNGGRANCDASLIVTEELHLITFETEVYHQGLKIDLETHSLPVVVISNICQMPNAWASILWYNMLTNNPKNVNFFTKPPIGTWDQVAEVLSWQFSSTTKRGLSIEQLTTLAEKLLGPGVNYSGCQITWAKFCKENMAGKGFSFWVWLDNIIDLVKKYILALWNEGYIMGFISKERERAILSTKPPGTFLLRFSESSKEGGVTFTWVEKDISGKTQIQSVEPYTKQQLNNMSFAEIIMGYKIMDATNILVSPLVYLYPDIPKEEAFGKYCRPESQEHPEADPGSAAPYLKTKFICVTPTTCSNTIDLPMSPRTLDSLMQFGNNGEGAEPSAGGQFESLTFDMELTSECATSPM",
  "assay": "FLAG affinity purification from transfected cell lysate, immunoblot with STAT3 antiserum",
  "data": [
    {"binder": "FLAG-tagged SV5 V protein (other, also called FLAG-SV5 V) MDPTDLSFSPDEINKLIETGLNTVEYFTSQQVTGTSSLGKNTIPPGVTGLLTNAAEAKIQESTNHQKGSVGGGAKPKKPRPKIAIVPADDKTVPGKPIPNPLLGLDSTPSTQTVLDLSGKTLPSGSYKGVKLAKFGKENLMTRFIEEPRENPIATSSPIDFKRGRDTGGFHRREYSIGWVGDEVKVTEWCNPSCSPITAAARRFECTCHQCPVTCSECERDT", "values": [
      {"measurement": "binding result", "value": "no binding"}
    ]}
  ]
}
